Experimental data reported in the supplement of paper PMC12764529.
± gives the half width of the 95% confidence interval.

Legend:
[1] = folding stability dG unfold from trypsin proteolysis; higher = more stable
How it was run: (§1)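 Only designs with AlphaFold2 dimer inter-PAE above 15 were retained; each was a mini-protein under 80 residues with no cysteine, in a PA-tagged cDNA display construct. After digestion with trypsin and chymotrypsin and sequencing, K50 was inferred by Bayesian fitting of counts, and unfolding free energy was derived per protease or combined against a sequence-predicted unfolded-state K50 and a shared folded-state K50.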

[2] = folding stability dG unfold from chymotrypsin proteolysis; higher = more stable
How it was run: as §1

[3] = folding stability dG unfold (combined trypsin and chymotrypsin); higher = more stable
How it was run: as §1

Sequence | folding stability dG unfold [1] [kcal/mol] | folding stability dG unfold [2] [kcal/mol] | folding stability dG unfold [3] [kcal/mol]
SGKVVATVPLPDGTVITVEVSPDNTVRVTVVRYRLVPNSTAPAVEVRTYTFPLPPGNPPSIQDVLDRVLSSA [r9_614_TrMRF] | 4.05 ± 0.14 | 4.53 ± 0.053 | 4.41 ± 0.098
SGLKDVISVTVTQSPTAGEVPVVTAYSPDGSRTFNLAPEETEAFLKALREAGYNVVVTDRVFVPVPAELGSA [r9_607_JUSTAS] | 1.676 ± 0.016 | 1.38 ± 0.052 | 1.56 ± 0.052
SGMDSNPKTTTENISFEEALKRLPSSVTSVEPRGESVVIKQSSPDSLTVVTMTRDPSSDSAPATTTTYLSSA [r9_604_JUSTAS] | 0.304 ± 0.087 | 0.181 ± 0.36 | 0.341 ± 0.17
SGNGEVEVEINIRIVIEPWDPNGEPDPVPIAEIPIKAEYDANDPEAVDFAVLDILDLLAPENPGYRIHIESA [r9_1112_TrROS] | 1.11 ± 0.067 | 0.379 ± 0.047 | 0.731 ± 0.062
SGPGEEEVAKRAAAEAAPTPDVREVTEEVEIVVPGTGEKVVVPVTALRLPDGTIVPLPEEEIRAIAEKLLSA [r9_1056_JUSTAS] | 0.341 ± 0.098 | 1.07 ± 0.058 | 0.771 ± 0.13
SGPTSITFPDGSSASISLSPDSFTITITLPGSSATSTYDPATGTTTITLTFSSSTVTLTLDPATGTLTVGSA [r9_207_JUSTAS] | 3.86 ± 0.11 | 5.01 ± 0.083 | 4.89 ± 0.11
SGSFKLLKVEEHPDNPSITAVLTFPDGSTATLRFRPDGSWTGYVESTGKPFTAVSGENELKLFVPEELTLSA [r9_233_TrMRF] | 0.67 ± 0.059 | 0.319 ± 0.14 | 0.523 ± 0.095
SGSSLLSETTEFVELPDDTFATVSTSTYYIPGSGEIVTKTTVTIYPPTGPPVTTTYTSTTTPEGVLVTESSA [r9_856_JUSTAS] | 2.38 ± 0.13 | 3.59 ± 0.15 | 3.31 ± 0.2
SGSTHTVRPPGGLTLTFTFSTDGTTEEAAQALKEALAAALPPDVTVTFDRIDPDKPVTPDEAATVDATVVSA [r9_178_JUSTAS] | 0.482 ± 0.055 | 1.69 ± 0.11 | 1.21 ± 0.17
SGVSVKVTVEGNTITIEVSADAKIKIEVTFPTKKATYEVEVEPGKPVTFTIPLPKDVPKDAFIDKIDIGGSA [r9_1152_TrMRF] | 1.98 ± 0.11 | 3.56 ± 0.12 | 3.03 ± 0.17
SIEEIADTLQKLGLNVNIDDIELEPNPDGRFRIQVQVSGEPIRQVEVPPPPPPPPEEEVRDPDGKEHKVRSA [r9_442_TrROS] | -0.188 ± 0.086 | -0.281 ± 0.26 | -0.404 ± 0.33
SIEIYEGPEEAEEMAEENGTPVIPIPPDMNLSEILKQLKNQPGLPPDQKIVIVIQWEPGQWYVIRIPIKPSA [r9_314_TrROS] | 2.05 ± 0.059 | 2.734 ± 0.022 | 2.53 ± 0.091
SIIRSPNGYWIVITVKVPEGAKPFPPGFEVQRDPEKGTLTIIMPMPPDDIRRLAEHPGVEIEKIEFIPWDSA [r9_827_TrROS] | 1.14 ± 0.032 | 2.05 ± 0.021 | 1.74 ± 0.069
SIITINFHPGMFHISIYKDGGEKTIPMPWSEIKELLKKGVDKVEIHSPDPGFMNEFQKLVQKEGIPIEIHSA [r9_810_TrROS] | 1.42 ± 0.095 | 2.12 ± 0.06 | 1.9 ± 0.25
SIKIEPHPDGFFMLRFPDNGHKIMIRVDPEKGKVKIMFETPGQPVEQEIDPDEGTITIEFPNNKIEIPIKSA [r9_541_TrROS] | 2.42 ± 0.1 | 1.14 ± 0.24 | 1.56 ± 0.23
SIKIRKEKTPNGYYEITFEFPFPDGWPMTIEANVQVDPENGKVKVDIKIEDPNLPPEFKEFIENFEFKVPSA [r9_715_TrROS] | 1.75 ± 0.079 | 2.97 ± 0.086 | 2.52 ± 0.23
SISITLPDGTKTVSQSFNPEGNTITYTMEAPGKKITITLTEKVVGGSKEISVKITTDPVPLTPEEVAALKAS [r1_154_JUSTAS] | 2.03 ± 0.13 | 1.94 ± 0.085 | 1.86 ± 0.12
SITIKIPLKPGYPYALRIHFYNPNGKPREMDMNVTRKPDGEVEIPIKIPDKDIPPGQDIRIQSIEIYPMKSA [r9_359_TrROS] | 1.5 ± 0.038 | 2.59 ± 0.1 | 1.99 ± 0.26
SITITRDPDYYTLRIPPGMDSVEEVQDFLKELGFKLPPGVKDIQVEEVDKENNQVTITIQLDDPEAIQDLSA [r9_820_TrROS] | 0.601 ± 0.085 | 0.836 ± 0.28 | 0.798 ± 0.2
SIYIKIPIDEIKPEWNKNGMITLEIKYPNGKTIKFEFPPGFQIDNIEVIKPGWIMFEFEIVPPADPEDAKSA [r9_501_TrROS] | 1.76 ± 0.12 | 3.06 ± 0.082 | 2.2 ± 0.16
SKAEIVEIKIEKVEKDGKKYYKVKIKVKTKDGKIKEIEITFPEGMSEEEIKKKIEELAKELGIEKVEIKPSA [r9_1203_TrROS_Hall] | 3.76 ± 0.44 | 4.7 ± 0.24 | 4.53 ± 0.67
